This assay has as its target T1, soluble serum stimulated 2 (sST2) (UniProt Q01638-2 19-328).
T1 construct: ST2 (IL1RL1), truncated soluble isoform that lacks the transmembrane and intracellular domains of ST2L; also called soluble ST2; IL1RL1; source: recombinant; expression and purification described previously [21]; receptor glycoproteins re-monomerized by Superdex 200 SEC
T1 sequence (looked up): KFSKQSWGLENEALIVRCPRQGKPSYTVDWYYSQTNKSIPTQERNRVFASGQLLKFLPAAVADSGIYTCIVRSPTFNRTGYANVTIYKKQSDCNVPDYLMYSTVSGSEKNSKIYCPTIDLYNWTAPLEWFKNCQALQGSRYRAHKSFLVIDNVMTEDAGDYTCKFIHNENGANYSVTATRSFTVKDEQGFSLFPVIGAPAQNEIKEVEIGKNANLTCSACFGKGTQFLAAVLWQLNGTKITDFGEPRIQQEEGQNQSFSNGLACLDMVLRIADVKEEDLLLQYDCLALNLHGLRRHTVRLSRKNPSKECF
The experiment in a line: KinExA; kinetic exclusion assay in free solution; IL-33^red titrated into fixed sST2 (30 pM and 2.0 pM); 1:1 binding model fitted to two datasets; association rate also by KinExA. As to conditions: both partners purified. In general terms: In KinExA the mixture passes briefly over coated beads that capture the unbound partner.

Experimental findings from article doi:10.1101/2023.02.28.527262, “Tozorakimab (MEDI3506): a dual-pharmacology anti-IL-33 antibody that inhibits IL-33 signalling via ST2 and RAGE/EGFR to reduce inflammation and epithelial dysfunction” (bioRxiv, 2023) are described below.

B1: reduced interleukin-33 (IL-33^red), residues 112–270 (ligand, human, UniProt O95760 112-270, looked up)
chain: SITGISPITEYLASLSTYNDQSITFALEDESYEIYVEDLKKDEKKDKVLLSYYESQHPSNESGDGVDGKMLMVTLSPTKDFWLHANNKEHSVELHKCEKPLPDQAFFVLHNMHSNCVSFECKTDPGVFIGVKDNHLALIKVDSSENLCTENILFKLSET
notes: Interleukin-33, human, residues 112-270, reduced form (free cysteines); also called wild-type IL-33; source: recombinant; expression and purification described previously [21]
With B1, the Kd (as a rule, a measure of binding affinity in units of concentration) came to 0.09 pM and the kon (in general, a measure of how fast the partners come together) came to 1.5e+08 M⁻¹ s⁻¹.
